Laboratory results as given in patent US20240124607A1 (Merck Sharp & Dohme, published 2024).
Changes are numbered by the printed parent chain. One block for each binder: values may come before it.

What was measured:
mouse NKG2D-Fc [1] = target: T1, mouse NKG2D-Fc (mouse, UniProt O54709 90-232); test: ELISA on plate-adsorbed recombinant mouse NKG2D-Fc, anti-human kappa-HRP, OD 450 nm
T1 construct: extracellular domain; also called Mouse NKG2D-Fc-biotin
T1 sequence (looked up): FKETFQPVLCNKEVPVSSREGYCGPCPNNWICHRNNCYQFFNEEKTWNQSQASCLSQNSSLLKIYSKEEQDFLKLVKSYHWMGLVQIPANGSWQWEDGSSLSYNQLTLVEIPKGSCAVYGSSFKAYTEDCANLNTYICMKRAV
Description: (§1) The nucleic acid sequences of human, mouse or cynomolgus NKG2D ectodomains were fused with nucleic acid sequences encoding human IgG1 Fc domains and introduced into mammalian cells to be expressed. After purification, NKG2D-Fc fusion proteins were adsorbed to wells of microplates. After blocking the wells with bovine serum albumin to prevent non-specific binding, NKG2D-binding domains were titrated and added to the wells pre-adsorbed with NKG2D-Fc fusion proteins. Primary antibody binding was detected using a secondary antibody which was conjugated to horseradish peroxidase and specifically recognizes a human kappa light chain to avoid Fc cross-reactivity. 3,3′,5,5′-Tetramethylbenzidine (TMB), a substrate for horseradish peroxidase, was added to the wells to visualize the binding signal, whose absorbance was measured at 450 nm and corrected at […]. An NKG2D-binding domain clone, an isotype control or a positive control (comprising heavy chain and light chain variable domains selected from the group consisting of: SEQ ID NOs: 526-529, or anti-mouse NKG2D clones MI-6 and CX-5 available at eBioscience) was added to each well.

human NKG2D-Fc [2] = target: T2, human NKG2D-Fc (human, UniProt P26718 73-216); test: competition ELISA: human NKG2D-Fc-biotin binding to plate-adsorbed MICA-Fc is blocked
T2 construct: extracellular domain; also called recombinant human NKG2D-Fc; NKG2D-Fc-biotin
T2 sequence (looked up): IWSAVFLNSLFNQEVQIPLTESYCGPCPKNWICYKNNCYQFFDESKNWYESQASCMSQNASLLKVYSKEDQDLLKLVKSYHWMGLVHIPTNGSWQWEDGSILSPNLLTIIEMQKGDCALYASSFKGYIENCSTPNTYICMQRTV
Procedure: Recombinant human MICA-Fc proteins were adsorbed to wells of a microplate, and the wells were blocked with bovine serum albumin to reduce non-specific binding. NKG2D-Fc-biotin was added to wells followed by NKG2D-binding domains. After incubation and washing, NKG2D-Fc-biotin that remained bound to MICA-Fc coated wells was detected using streptavidin-HRP and TMB substrate. Absorbance was measured at 450 nm and corrected at […]. After subtracting background, specific binding of NKG2D-binding domains to the NKG2D-Fc proteins was calculated from the percentage of NKG2D-Fc-biotin that was blocked from binding to the MICA-Fc coated wells.

cynomolgus NKG2D-Fc = target: T3, cynomolgus NKG2D-Fc (cynomolgus monkey, UniProt P61252 73-216); test: ELISA on plate-adsorbed recombinant cynomolgus NKG2D-Fc, anti-human kappa-HRP, OD 450 nm
T3 construct: extracellular domain
T3 sequence (looked up): T2 sequence (looked up) with D43N, T133I
Description: as §1

human NKG2D-Fc [3] = target: T2, human NKG2D-Fc; test: competition ELISA on plate-adsorbed human NKG2D-Fc; blocked ligand ULBP-6-His-biotin
Procedure: Recombinant human NKG2D-Fc proteins were adsorbed to wells of a microplate, and the wells were blocked with bovine serum albumin to reduce non-specific binding. A saturating concentration of ULBP-6-His-biotin was added to the wells, followed by addition of the NKG2D-binding domain clones. After a 2-hour incubation, wells were washed and ULBP-6-His-biotin that remained bound to the NKG2D-Fc coated wells was detected by streptavidin-conjugated to horseradish peroxidase and TMB substrate. Absorbance was measured at 450 nm and corrected at […]. After subtracting background, specific binding of NKG2D-binding domains to the NKG2D-Fc proteins was calculated from the percentage of ULBP-6-His-biotin that was blocked from binding to the NKG2D-Fc proteins in wells.

mouse NKG2D-Fc [4] = target: T1, mouse NKG2D-Fc; test: competition ELISA: mouse NKG2D-Fc-biotin binding to plate-adsorbed Rae-1delta-Fc is blocked
Procedure: Recombinant mouse Rae-1delta-Fc (purchased from R&D Systems) was adsorbed to wells of a microplate, and the wells were blocked with bovine serum albumin to reduce non-specific binding. Mouse NKG2D-Fc-biotin was added to the wells followed by NKG2D-binding domains. After incubation and washing, NKG2D-Fc-biotin that remained bound to Rae-1delta-Fc coated wells was detected using streptavidin-HRP and TMB substrate. Absorbance was measured at 450 nm and corrected at […]. After subtracting background, specific binding of NKG2D-binding domains to the NKG2D-Fc proteins was calculated from the percentage of NKG2D-Fc-biotin that was blocked from binding to the Rae-1delta-Fc coated wells.

human NKG2D-Fc [5] = target: T2, human NKG2D-Fc; test: ELISA on plate-adsorbed recombinant human NKG2D-Fc, anti-human kappa-HRP, OD 450 nm
Description: as §1

human CEACAM5 on cells [6] = target: T4, human CEACAM5 on cells (human, UniProt P06731 35-685); test: flow cytometry, BxPC-3 cells
T4 construct: tumour cell lines with endogenous CEACAM5, or B16F10 engineered to express hCEACAM5; also called CEACAM5 on MKN-45, HPAF-II, SK-CO-1, LoVo, BxPC-3, Kato-III, LS-174T, ZR-75-30; hCEACAM5-B16F10
T4 sequence: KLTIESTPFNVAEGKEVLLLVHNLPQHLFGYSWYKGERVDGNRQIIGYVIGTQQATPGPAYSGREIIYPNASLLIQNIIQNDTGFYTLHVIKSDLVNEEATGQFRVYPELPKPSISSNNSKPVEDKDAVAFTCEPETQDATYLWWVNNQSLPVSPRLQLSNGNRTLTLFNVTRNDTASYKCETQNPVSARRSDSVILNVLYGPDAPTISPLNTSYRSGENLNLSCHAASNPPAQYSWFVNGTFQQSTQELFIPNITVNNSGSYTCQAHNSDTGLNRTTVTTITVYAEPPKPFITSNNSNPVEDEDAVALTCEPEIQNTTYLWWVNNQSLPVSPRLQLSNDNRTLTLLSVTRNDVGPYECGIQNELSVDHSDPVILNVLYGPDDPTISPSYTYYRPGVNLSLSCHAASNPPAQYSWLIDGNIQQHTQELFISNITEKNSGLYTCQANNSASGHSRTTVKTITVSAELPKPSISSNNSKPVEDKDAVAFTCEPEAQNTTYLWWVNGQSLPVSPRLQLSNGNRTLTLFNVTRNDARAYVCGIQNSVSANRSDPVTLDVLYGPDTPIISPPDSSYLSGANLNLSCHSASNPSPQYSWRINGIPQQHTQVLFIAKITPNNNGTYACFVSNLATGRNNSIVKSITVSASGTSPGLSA

human CEACAM5 on cells [7] = target: T4, human CEACAM5 on cells; test: flow cytometry, SK-CO-1 cells
human CEACAM5 on cells [8] = target: T4, human CEACAM5 on cells; test: flow cytometry, MKN-45 cells; MKN-45 cells
human CEACAM5 on cells [9] = target: T4, human CEACAM5 on cells; test: flow cytometry, LoVo cells
human CEACAM5 on cells [10] = target: T4, human CEACAM5 on cells; test: flow cytometry, Kato-III cells
human CEACAM5 on cells [11] = target: T4, human CEACAM5 on cells; test: flow cytometry, MKN-45 cells

- EC50 (read off the curve) (mouse NKG2D-Fc [1]): ~0.2 nM
- IC50 (read off the curve) (human NKG2D-Fc [2]): ~20 nM
- EC50 (read off the curve) (cynomolgus NKG2D-Fc): ~0.3 nM
- IC50 (read off the curve) (human NKG2D-Fc [3]): ~3 nM
- IC50 (read off the curve) (mouse NKG2D-Fc [4]): ~20 nM
- EC50 (read off the curve) (human NKG2D-Fc [5]): ~0.4 nM
B1: ADI-27743 (antibody, V domains shown)
VH: QVQLQQWGAGLLKPSETLSLTCAVYGGSFSGYYWSWIRQPPGKGLEWIGEIDHSGSTNYNPSLKSRVTISVDTSKNQFSLKLSSVTAADTAVYYCARARGPWSFDPWGQGTLVTVSS
VL: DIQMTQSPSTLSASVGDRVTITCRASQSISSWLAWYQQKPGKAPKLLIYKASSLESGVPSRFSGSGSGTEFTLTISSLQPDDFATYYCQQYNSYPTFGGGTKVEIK
notes: named as a single clone only on the drawing sheets

- EC50 (human CEACAM5 on cells [6]): 4.28 nM
- Max FOB (human CEACAM5 on cells [6]): 19 fold over background
- EC50 (human CEACAM5 on cells [7]): 8.67 nM
- Max FOB (human CEACAM5 on cells [7]): 37 fold over background
- EC50 (human CEACAM5 on cells [8]): < 9.05 nM
- EC50 (human CEACAM5 on cells [9]): 3.25 nM
- Max FOB (human CEACAM5 on cells [9]): 19 fold over background
- EC50 (human CEACAM5 on cells [10]): 1.17 nM
- Max FOB (human CEACAM5 on cells [10]): 5 fold over background
- Max FOB (human CEACAM5 on cells [11]): 107 fold over background
B2: AB0509 (antibody, V domains shown)
VH: QVQLVQSGGGLVQPGGSLRLSCAASGFTFTSYAMSWVRQAPGKGLEWVSAISGTGDSTFYADSVKGRFTFSRDNSKNTLYLQMNSLRAEDTAVYYCAKDLGWLQYGLFDYWGQGTLVTVSS
VL: DIQLTQSPATLSVSPGERATLSCRASQSVSSSYLAWYQQKPGQAPRLLIYGASSRATGIPDRFSGSGSGTDFTLTISRLEPEDFAVYYCQQYNNWPLTFGGGTKVEIK
notes: the scFv entries carry the stabilising cysteines, which the mAb may lack; also called mAb corresponding to AB0411
